Experimental data published in patent US20190361034A1.

How the values were obtained:
[1] = molecular target: MHC class II molecules on MHC class II-expressing Raji cells (human); assay: direct ELISA, plate-immobilised Raji cells; 5% BSA, 5,000 cells; 62.5 ng/ml
[2] = molecular target: MHC class II molecules on MHC class II-expressing Raji cells (human); assay: direct ELISA, plate-immobilised Raji cells; 10% FBS, 10,000 cells; 1000 ng/ml
[3] = molecular target: MHC class II molecules on MHC class II-expressing Raji cells (human); assay: direct ELISA, plate-immobilised Raji cells; 10% FBS, 5,000 cells; 125 ng/ml
[4] = molecular target: MHC class II molecules on MHC class II-expressing Raji cells (human); assay: direct ELISA, plate-immobilised Raji cells; 5% BSA, 2,500 cells; 31.25 ng/ml
[5] = molecular target: MHC class II molecules on MHC class II-expressing Raji cells (human); assay: transfer cell ELISA, Raji cells; 1.953 ng/ml; plate row D
[6] = molecular target: MHC class II molecules on MHC class II-expressing Raji cells (human); assay: direct ELISA, plate-immobilised Raji cells; 10% FBS, 10,000 cells; 125 ng/ml
[7] = molecular target: MHC class II molecules on MHC class II-expressing Raji cells (human); assay: direct ELISA, plate-immobilised Raji cells; 10% FBS, 2,500 cells; 500 ng/ml
[8] = molecular target: MHC class II molecules on MHC class II-expressing Raji cells (human); assay: direct ELISA, plate-immobilised Raji cells; 5% BSA, 2,500 cells; 250 ng/ml
[9] = molecular target: MHC class II molecules on MHC class II-expressing Raji cells (human); assay: direct ELISA, plate-immobilised Raji cells; 5% BSA, 10,000 cells; 1000 ng/ml
[10] = molecular target: MHC class II molecules on MHC class II-expressing Raji cells (human); assay: direct ELISA, plate-immobilised Raji cells; 10% FBS, 10,000 cells; 500 ng/ml
[11] = molecular target: MHC class II molecules on MHC class II-expressing Raji cells (human); assay: direct ELISA, plate-immobilised Raji cells; 10% FBS, 5,000 cells; 62.5 ng/ml
[12] = molecular target: MHC class II molecules on MHC class II-expressing Raji cells (human); assay: direct ELISA, plate-immobilised Raji cells; 10% FBS, 5,000 cells; 250 ng/ml
[13] = molecular target: MHC class II molecules on MHC class II-expressing Raji cells (human); assay: transfer cell ELISA, Raji cells; 15.63 ng/ml; plate row D
[14] = molecular target: MHC class II molecules on MHC class II-expressing Raji cells (human); assay: transfer cell ELISA, Raji cells; 3.906 ng/ml; plate row C
[15] = molecular target: MHC class II molecules on MHC class II-expressing Raji cells (human); assay: transfer cell ELISA, Raji cells; 15.63 ng/ml; plate row C
[16] = molecular target: MHC class II molecules on MHC class II-expressing Raji cells (human); assay: direct ELISA, plate-immobilised Raji cells; 10% FBS, 10,000 cells; 31.25 ng/ml
[17] = molecular target: MHC class II molecules on MHC class II-expressing Raji cells (human); assay: direct ELISA, plate-immobilised Raji cells; 10% FBS, 5,000 cells; 1000 ng/ml
[18] = molecular target: MHC class II molecules on MHC class II-expressing Raji cells (human); assay: direct ELISA, plate-immobilised Raji cells; 5% BSA, 5,000 cells; 31.25 ng/ml
[19] = molecular target: MHC class II molecules on MHC class II-expressing Raji cells (human); assay: transfer cell ELISA, Raji cells; 0.977 ng/ml
[20] = molecular target: MHC class II molecules on MHC class II-expressing Raji cells (human); assay: direct ELISA, plate-immobilised Raji cells; 0.5% Casein, 5,000 cells; 1000 ng/ml
[21] = molecular target: MHC class II molecules on MHC class II-expressing Raji cells (human); assay: BLI; IMP321 sample at 125% binding potency, Raji cells in solution; relative to reference standard
[22] = molecular target: MHC class II molecules on MHC class II-expressing Raji cells (human); assay: direct ELISA, plate-immobilised Raji cells; 0.5% Casein, 10,000 cells; 500 ng/ml
[23] = molecular target: MHC class II molecules on MHC class II-expressing Raji cells (human); assay: direct ELISA, plate-immobilised Raji cells; 0.5% Casein, 10,000 cells; 1000 ng/ml
[24] = molecular target: MHC class II molecules on MHC class II-expressing Raji cells (human); assay: direct ELISA, plate-immobilised Raji cells; 0.5% Casein, 5,000 cells; 15.625 ng/ml
[25] = molecular target: MHC class II molecules on MHC class II-expressing Raji cells (human); assay: direct ELISA, plate-immobilised Raji cells; 0.5% Casein, 5,000 cells; 125 ng/ml
[26] = molecular target: MHC class II molecules on MHC class II-expressing Raji cells (human); assay: direct ELISA, plate-immobilised Raji cells; 0.5% Casein, 5,000 cells; 62.5 ng/ml
[27] = molecular target: MHC class II molecules on MHC class II-expressing Raji cells (human); assay: direct ELISA, plate-immobilised Raji cells; 3% gelatin, 5,000 cells; 15.625 ng/ml
[28] = molecular target: MHC class II molecules on MHC class II-expressing Raji cells (human); assay: BLI; immobilised sample, Raji cells in solution; control of FIG. 18 (37° C., 1 day, no H2O2)
[29] = molecular target: MHC class II molecules on MHC class II-expressing Raji cells (human); assay: direct ELISA, plate-immobilised Raji cells; 0.5% Casein, 10,000 cells; 31.25 ng/ml
[30] = molecular target: MHC class II molecules on MHC class II-expressing Raji cells (human); assay: direct ELISA, plate-immobilised Raji cells; 3% gelatin, 5,000 cells; 31.25 ng/ml
[31] = molecular target: MHC class II molecules on MHC class II-expressing Raji cells (human); assay: transfer cell ELISA, Raji cells; 250 ng/ml
[32] = molecular target: MHC class II molecules on MHC class II-expressing Raji cells (human); assay: direct ELISA, plate-immobilised Raji cells; 3% gelatin, 10,000 cells; 15.625 ng/ml
[33] = molecular target: MHC class II molecules on MHC class II-expressing Raji cells (human); assay: direct ELISA, plate-immobilised Raji cells; 0.5% Casein, 10,000 cells; 15.625 ng/ml

For “IMP321 treated with Peptide-N-Glycosidase F (PNGase F) (Fc fusion)”, the OD (ELISA signal) [1] was 0.303 OD, the OD (ELISA signal) [2] was 1.34 OD and the OD (ELISA signal) [3] was 0.443 OD. The OD (ELISA signal) [4] was 0.304 OD, the OD (ELISA signal) [5] was 0.01 OD and the OD (ELISA signal) [6] was 0.377 OD. For the same substance, the OD (ELISA signal) [7] was 1.8 OD, the OD (ELISA signal) [8] was 0.893 OD and the OD (ELISA signal) [9] was 1.77 OD. For the same substance, the OD (ELISA signal) [10] was 1.35 OD, the OD (ELISA signal) [11] was 0.28 OD and the OD (ELISA signal) [12] was 0.939 OD. The OD (ELISA signal) [13] was 0.029 OD, the OD (ELISA signal) [14] was 0.012 OD and the OD (ELISA signal) [15] was 0.035 OD. It also gave an OD (ELISA signal) [16] of 0.279 OD, an OD (ELISA signal) [17] of 2.25 OD and an OD (ELISA signal) [18] of 0.297 OD.
Work on “IMP321, recombinant soluble human LAG-3Ig fusion protein (Fc fusion)” yielded an OD (ELISA signal) [19] of 0.018 OD, an OD (ELISA signal) [20] of 0.136 OD and a Potency determined by BLI assay [21] of 135%. For the same substance, the OD (ELISA signal) [22] was 0.188 OD, the OD (ELISA signal) [23] was 0.16 OD and the OD (ELISA signal) [24] was 0.207 OD. For the same substance, the OD (ELISA signal) [25] was 0.197 OD, the OD (ELISA signal) [26] was 0.131 OD and the OD (ELISA signal) [27] was 0.316 OD. It also gave a Bioactivity (binding) [28] of 77%, an OD (ELISA signal) [29] of 0.18 OD and an OD (ELISA signal) [30] of 0.359 OD. For the same substance, the OD (ELISA signal) [31] was 0.956 OD, the OD (ELISA signal) [32] was 0.361 OD and the OD (ELISA signal) [33] was 0.185 OD.
